For assay [1], the target named is T1, BMP-7 prodomain biotinylated through amines (human, UniProt P18075 30-292, biotin through amines (EZ-Link NHS-PEG4-Biotin)).
T1 construct: prodomain of human bone morphogenetic protein 7 (BMP-7); 90% pure, with about 10% unprocessed BMP-7; also called biotinylated prodomain; source: CHO cells; soluble BMP-7 biotinylated, prodomain eluted from Zn-chelating Sepharose with 50 mM imidazole
Description: ELISA; BMP-7 complexes with biotinylated prodomain or biotinylated GF captured on anti-BMP-7 GF mAb; bound prodomain or GF detected with SA-HRP (biotinylated prodomain preparation also added as preformed complex with SA-HRP); 0.1% Tween-20 in all incubations; Kd from modeling of the concentration dependence. The following applies: both partners purified.

In assay [2] the target is T2, AMHR2-Fc/Fc, heterodimer of one AMHR2-Fc chain (extracellular domain of human AMHR2 fused to human IgG1 Fc) … (human, UniProt Q16671 18-149; P01857 104-330 = IgG part).
T2 construct: extracellular domain of human anti-Müllerian hormone receptor type-2 (AMHR2); Fc portion of human IgG1 (Ig gamma-1 chain constant region), the Fc-only chain; Functionally monovalent for AMHR2; also called soluble receptor; soluble AMHR2; source: human embryonic kidney 293E cells, purified from conditioned medium (Protein A Sepharose, size-exclusion chromatography); copies: 1 + 1
Description: ELISA; AMHR2-Fc/Fc (0.75 ug/ml) captured on goat antihuman Fc Ab coated on the plate; c-AMH or GF serially diluted, 2 to 4 h; bound AMH detected with biotinylated mAb-C1 (GF) or mAb-N1 (prodomain) and SA-HRP; data fit to the quadratic equation for a reversible association reaction. To be noted: both partners purified. For orientation: An ELISA detects its analyte on a solid surface through an enzyme-linked reagent.

T1 sequence (P18075 30-292): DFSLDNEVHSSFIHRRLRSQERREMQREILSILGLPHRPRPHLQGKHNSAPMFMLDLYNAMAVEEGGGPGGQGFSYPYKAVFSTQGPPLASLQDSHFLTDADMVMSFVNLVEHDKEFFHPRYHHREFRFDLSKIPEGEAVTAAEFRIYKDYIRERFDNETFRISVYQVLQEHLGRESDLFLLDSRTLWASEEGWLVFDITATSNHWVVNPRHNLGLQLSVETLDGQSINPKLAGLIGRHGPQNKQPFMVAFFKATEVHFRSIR

B1: mature BMP-7 growth factor (unmodified mature domain) (ligand, human, UniProt P18075 293-431, looked up)
chain: STGSKQRSQNRSKTPKNQEALRMANVAENSSSDQRQACKKHELYVSFRDLGWQDWIIAPEGYAAYYCEGECAFPLNSYMNATNHAIVQTLVHFINPETVPKPCCAPTQLNAISVLYFDDSSNVILKKYRNMVVRACGCH
notes: mature growth factor (GF) domain of human BMP-7; also called BMP-7 GF; source: CHO cells; mature BMP-7 eluted from Zn-chelating Sepharose with 6 M urea
Turning to B1, the Kd (in general, a measure of binding affinity in units of concentration) in assay [1] is 0.1 to 0.2 nM.

B2: anti-Müllerian hormone growth factor (AMH GF), the mature C-terminal domain (ligand, human, UniProt P03971 452-560, looked up)
chain: SAGATAADGPCALRELSVDLRAERSVLIPETYQANNCQGVCGWPQSDRNPRYGNHVVLLLKMQVRGAALARPPCCVPTAYAGKLLISLSEERISAHHVPNMVATECGCR
notes: C-terminal growth factor (GF) domain of human AMH, the mature product of cleavage at the monobasic site (R451); Disulfide-linked homodimer; also called mature GF; C-terminal GF; source: in the prodomain/GF rows it is the GF part of c-AMH (CHO cells, plasmin cleaved)
In assay [2], B2 registered a Kd of 0.03 nM.

The values above are taken from paper PMC8801479, “The anti-Müllerian hormone prodomain is displaced from the hormone/prodomain complex upon bivalent binding to the hormone receptor” (The Journal of Biological Chemistry, 2021).
